Molecular target: T1, myristoylated zGCAP2 (zebrafish), Q90WX3
T1 chain: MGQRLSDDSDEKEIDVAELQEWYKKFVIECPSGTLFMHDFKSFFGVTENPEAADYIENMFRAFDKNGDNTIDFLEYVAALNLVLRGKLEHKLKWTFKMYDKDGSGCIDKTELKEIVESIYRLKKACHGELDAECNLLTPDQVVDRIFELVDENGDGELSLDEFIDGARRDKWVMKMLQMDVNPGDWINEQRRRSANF
Assay: SEC; analytical size exclusion chromatography of purified myristoylated zGCAPs on a Primaide HPLC system, as described previously (refs 12, 18, 30); Ca2+ dependence tested; data not shown
Settings: remark: other sources report otherwise

B1: myristoylated zGCAP2, Q90WX3 1-197 (natural protein)
chain: T1 chain
modifications: here or on the partner: N-terminal myristoyl group; N-terminal myristoyl group
Question: With B1 as the binder, how does the percent monomeric form read?
Answer: 80%

Question: And the stoichiometry N?
Answer: 2
